Reference: paper PMC12432404

Molecular target: α‐synuclein (UniProt P37840)

Chain of DNAJB1 (P25685 whole entry): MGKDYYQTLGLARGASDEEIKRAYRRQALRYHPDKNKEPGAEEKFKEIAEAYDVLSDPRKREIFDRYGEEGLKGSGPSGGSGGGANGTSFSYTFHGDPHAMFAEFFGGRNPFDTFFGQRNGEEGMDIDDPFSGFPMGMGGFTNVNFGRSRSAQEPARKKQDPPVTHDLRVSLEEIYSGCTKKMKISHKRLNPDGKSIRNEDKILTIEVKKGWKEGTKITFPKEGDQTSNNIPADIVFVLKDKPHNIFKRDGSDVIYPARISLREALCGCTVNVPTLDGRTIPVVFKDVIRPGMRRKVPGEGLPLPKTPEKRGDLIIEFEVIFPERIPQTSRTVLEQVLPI
Chain of HspA8 (P11142 whole entry): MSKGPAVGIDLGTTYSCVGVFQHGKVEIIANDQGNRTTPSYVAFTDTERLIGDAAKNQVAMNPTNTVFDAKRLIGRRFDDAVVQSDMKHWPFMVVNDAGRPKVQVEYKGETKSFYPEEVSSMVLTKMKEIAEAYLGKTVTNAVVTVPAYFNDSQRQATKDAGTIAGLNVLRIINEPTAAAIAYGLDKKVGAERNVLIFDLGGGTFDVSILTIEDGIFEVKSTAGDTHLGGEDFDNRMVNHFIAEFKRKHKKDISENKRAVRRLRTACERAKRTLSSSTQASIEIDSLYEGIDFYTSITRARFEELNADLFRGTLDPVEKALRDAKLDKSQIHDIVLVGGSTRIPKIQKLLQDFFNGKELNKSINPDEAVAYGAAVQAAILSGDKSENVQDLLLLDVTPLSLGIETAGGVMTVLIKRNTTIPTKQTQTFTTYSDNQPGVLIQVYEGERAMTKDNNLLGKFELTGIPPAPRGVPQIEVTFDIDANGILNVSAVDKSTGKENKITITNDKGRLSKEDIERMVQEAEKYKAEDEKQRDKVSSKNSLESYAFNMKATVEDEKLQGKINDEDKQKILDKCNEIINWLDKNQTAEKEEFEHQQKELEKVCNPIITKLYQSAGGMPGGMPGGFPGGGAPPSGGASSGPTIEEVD

Row | Substance | Thioflavin‐T fluorescence: elongation of α‐synuclein seeds (2 μM) by monomeric α‐synuclein (0–20 μM) with and without the Hsp70 chaperones (2 μM HspA8, 1 μM DNAJB1, 0.2 μM Hsp110), 30°C [fold]
1 | HspA8 (from UniProt P11142 1-646) (natural protein) | 3
2 | DNAJB1 (from UniProt P25685 1-340) (natural protein) | 3
